# Molecular target: the molecule itself
# Experiment: SDS-PAGE
protein,measurement,value
"porin OmpF from E. coli (wild type) (natural protein, UniProt P02931 23-362, looked up) AEIYNKDGNKVDLYGKAVGLHYFSKGNGENSYGGNGDMTYARLGFKGETQINSDLTGYGQWEYNFQGNNSEGADAQTGNKTRLAFAGLKYADVGSFDYGRNYGVVYDALGYTDMLPEFGGDTAYSDDFFVGRVGGVATYRNSNFFGLVDGLNFAVQYLGKNERDTARRSNGDGVGGSISYEYEGFGIVGAYGAADRTNLQEAQPLGNGKKAEQWATGLKYDANNIYLAANYGETRNATPITNKFTNTSGFANKTQDVLLVAQYQFDFGLRPSIAYTKSKAKDVEGIGDVDLVNYFEVGATYYFNKNMSTYVDYIINQIDSDNKLGVGSDDTVAVGIVYQF",stoichiometry N,3
